{"source": "paper PMC2002144", "target": "epidermal growth factor receptor (EGFr) (human (endogenous in human breast tumours)) (UniProt P00533)", "test": "radioligand binding; labelled EGF on membrane protein of human breast tumours; multipoint Scatchard analyses and 2 point assays; saturation assay with 1 nM labelled EGF, 100 ug membrane protein, 100 nM unlabelled EGF for non-specific binding, volume 400 ul with buffer; constant of the high affinity site (2 binding sites found)", "data": [{"substance": "epidermal growth factor (EGF), labelled (from UniProt P01132 977-1029) (ligand)", "values": [{"measurement": "KD, high affinity site", "result": "0.3 to 0.6", "unit": "nM"}]}]}
